# From doi:10.1101/2020.10.15.340570, “Coordination of RNA and protein condensation by the P granule protein MEG-3”
# T1: MEG-3 HMGL- (Caenorhabditis elegans, UniProt Q9TXM1 1-862, F705A;Y708A;Y713A;N725A)
# T1 sequence: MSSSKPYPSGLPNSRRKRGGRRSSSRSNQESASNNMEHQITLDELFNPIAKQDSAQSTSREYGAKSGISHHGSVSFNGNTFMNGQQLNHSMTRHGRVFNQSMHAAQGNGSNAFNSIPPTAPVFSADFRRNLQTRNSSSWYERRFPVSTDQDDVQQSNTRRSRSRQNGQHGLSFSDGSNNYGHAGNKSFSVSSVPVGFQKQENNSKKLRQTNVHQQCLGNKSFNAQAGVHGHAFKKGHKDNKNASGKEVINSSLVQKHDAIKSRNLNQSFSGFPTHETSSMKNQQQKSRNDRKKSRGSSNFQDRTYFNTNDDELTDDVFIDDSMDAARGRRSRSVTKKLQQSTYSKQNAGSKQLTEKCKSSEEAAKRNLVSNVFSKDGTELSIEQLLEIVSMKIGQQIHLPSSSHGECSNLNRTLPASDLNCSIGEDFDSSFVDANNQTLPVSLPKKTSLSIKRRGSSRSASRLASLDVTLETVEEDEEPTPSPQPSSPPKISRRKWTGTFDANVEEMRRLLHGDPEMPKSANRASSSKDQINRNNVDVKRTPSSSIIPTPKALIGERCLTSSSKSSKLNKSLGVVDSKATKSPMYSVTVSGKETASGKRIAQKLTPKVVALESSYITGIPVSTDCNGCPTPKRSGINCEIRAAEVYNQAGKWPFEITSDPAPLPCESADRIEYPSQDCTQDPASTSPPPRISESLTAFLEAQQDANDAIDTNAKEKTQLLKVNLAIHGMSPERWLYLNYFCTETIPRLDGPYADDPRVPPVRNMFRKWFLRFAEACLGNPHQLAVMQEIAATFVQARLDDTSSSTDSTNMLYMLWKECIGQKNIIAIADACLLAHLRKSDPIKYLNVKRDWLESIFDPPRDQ
# Target: T1, MEG-3 HMGL-
# Experiment: filter binding; high affinity, similar to wild type; Kd only in figure; 50 nM RNA, 3.75 mM HEPES (stock pH 7.4), 150 mM NaCl, 0.9 mM beta-mercaptoethanol, 1.5% glycerol, 10 mM Tris HCl, 30 min, room temperature
# Details: protein: recombinant; tags: N-terminal 6xHis (pET28a); label: 3' fluorescein; single strand
binder,measurement,value
UUUUUUUUUUUUUUUUUUUUUUUUUUUUUU (ssRNA) [30U RNA (poly-U30)],binding result,binds
